Results taken from patent US20110028688A1 (published 2011).
Residue numbers refer to the chain shown, from its start. In names and notes the source's numbering stands. Values belong to the binder of their own block, whether it stands above or below them.

Experiments:
[1] = target: T1, human OX40 receptor (hOX40), residues 29-170 (human, UniProt P43489 29-170, in the competition ELISA only: biotinylated with a 4 fold molar excess of biotin-NHS-LC (sites not given)); assay: competition ELISA, alanine mutant against the N90D, N114D reference
T1 construct: Secreted from High Five insect cells (baculovirus), His-tag cleaved; also called hOX40 receptor; monomeric hOX40
T1 sequence: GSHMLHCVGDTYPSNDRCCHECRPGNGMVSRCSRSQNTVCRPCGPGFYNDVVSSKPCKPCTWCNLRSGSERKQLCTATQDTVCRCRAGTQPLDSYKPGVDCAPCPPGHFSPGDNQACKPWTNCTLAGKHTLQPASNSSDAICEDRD

[2] = target: T2, human OX40 receptor (hOX40), residues 29-170 (human, UniProt P43489 29-170, biotinylated with biotin-NHS-LC in the competition ELISA (Table II); not biotinylated in the crystals (Tables 6 and 7)); assay: competition ELISA; relative to hOX40L N90D, N114D
T2 construct: Monomeric soluble receptor fragment; also called hOX40Receptor; HOX40 receptor
T2 sequence: T1 sequence

[3] = target: T2, human OX40 receptor (hOX40), residues …; assay: competition ELISA; hOX40L in solution with biotinylated hOX40, unbound receptor captured on plate-coated mOX40L (competitor)
[4] = target: T2, human OX40 receptor (hOX40), residues …; assay: competition ELISA; mutant in solution with biotinylated hOX40, unbound receptor captured on mOX40L-coated plate (N.D.: no detectable competition)
[5] = target: T1, human OX40 receptor (hOX40), residues …; assay: competition ELISA (biotinylated hOX40 pre-incubated with mutant, unbound receptor captured on mOX40L-coated plate)

fold change in IC50 [1]: ≥ 3 fold
B1: human OX40L residues 51-183 N90D, N114D, D162A (ligand)
chain: GSHMQVSHRYPRIQSIKVQFTEYKKEKGFILTSQKEDEIMKVQDNSVIINCDGFYLISLKGYFSQEVDISLHYQKDEEPLFQLKKVRSVNSLMVASLTYKDKVYLNVTTDNTSLDAFHVNGGELILIHQNPGEFCVL
notes: Single alanine mutant in the N90D, N114D background

binding result [4]: no binding
B3: human OX40L F180A in the N90D, N114D background, residues 51-183 (ligand)
chain: B1 chain with A116D, F134A
notes: Properly assembled trimer by size exclusion chromatography

Fold-change in IC50 (Mutant/N90D, N114D) [2]: 3 fold | IC50 [3]: 186 nM
B5: human OX40L E123A in the N90D, N114D background, residues 51-183 (ligand)
chain: B1 chain with E77A, A116D
notes: as for B3

Fold-change in IC50 (Mutant/N90D, N114D) [2]: 6.9 fold | IC50 [3]: 425 nM
B8: human OX40L D162A in the N90D, N114D background, residues 51-183 (ligand)
chain: B1 chain
notes: as for B3

Fold-change in IC50 (Mutant/N90D, N114D) [2]: 2.2 fold | IC50 [3]: 139 nM
B10: human OX40L T144A in the N90D, N114D background, residues 51-183 (ligand)
chain: B1 chain with T98A, A116D
notes: as for B3

binding result [5]: no binding
B11: human OX40L residues 51-183 N90D, N114D, N166A (ligand)
chain: B1 chain with A116D, N120A
notes: as for B1

binding result [4]: no binding
B12: human OX40L N166A in the N90D, N114D background, residues 51-183 (ligand)
chain: B1 chain with A116D, N120A
notes: as for B3

Further lines, the binder ahead of its results:

B2: human OX40L (hOX40L), wild type, residues 51-183 (ligand)
chain: B1 chain with D44N, D68N, A116D
notes: Homotrimer; also called WT; OX40 ligand
Fold-change in IC50 (Mutant/N90D, N114D) [2]: 2.2 fold | IC50 [3]: 139 nM

B4: human OX40L residues 51-183 N90D, N114D, F180A (ligand)
chain: B1 chain with A116D, F134A
notes: as for B1
binding result [5]: no binding

B6: human OX40L residues 51-183 N90D, N114D, Q80A (ligand)
chain: B1 chain with Q34A, A116D
notes: as for B1
fold change in IC50 [1]: ≥ 3 fold

B7: human OX40L Q80A in the N90D, N114D background, residues 51-183 (ligand)
chain: B1 chain with Q34A, A116D
notes: as for B3
Fold-change in IC50 (Mutant/N90D, N114D) [2]: 8.6 fold | IC50 [3]: 537 nM

B9: human OX40L (hOX40L) N90D, N114D double glycosylation mutant, residues 51-183 (ligand)
chain: B1 chain with A116D
notes: Homotrimer; also called hOX40Ligand; hOX40L double glycosylation mutant
IC50 [3]: 62 nM
